Reference: publication PMC3773608 (Journal of molecular neuroscience : MN, 2009)

Biological target: GST-PSD-95 (rat, UniProt P31016 1-724)
Experiment: co-IP

Chain of GST-PSD-95 (P31016 whole entry): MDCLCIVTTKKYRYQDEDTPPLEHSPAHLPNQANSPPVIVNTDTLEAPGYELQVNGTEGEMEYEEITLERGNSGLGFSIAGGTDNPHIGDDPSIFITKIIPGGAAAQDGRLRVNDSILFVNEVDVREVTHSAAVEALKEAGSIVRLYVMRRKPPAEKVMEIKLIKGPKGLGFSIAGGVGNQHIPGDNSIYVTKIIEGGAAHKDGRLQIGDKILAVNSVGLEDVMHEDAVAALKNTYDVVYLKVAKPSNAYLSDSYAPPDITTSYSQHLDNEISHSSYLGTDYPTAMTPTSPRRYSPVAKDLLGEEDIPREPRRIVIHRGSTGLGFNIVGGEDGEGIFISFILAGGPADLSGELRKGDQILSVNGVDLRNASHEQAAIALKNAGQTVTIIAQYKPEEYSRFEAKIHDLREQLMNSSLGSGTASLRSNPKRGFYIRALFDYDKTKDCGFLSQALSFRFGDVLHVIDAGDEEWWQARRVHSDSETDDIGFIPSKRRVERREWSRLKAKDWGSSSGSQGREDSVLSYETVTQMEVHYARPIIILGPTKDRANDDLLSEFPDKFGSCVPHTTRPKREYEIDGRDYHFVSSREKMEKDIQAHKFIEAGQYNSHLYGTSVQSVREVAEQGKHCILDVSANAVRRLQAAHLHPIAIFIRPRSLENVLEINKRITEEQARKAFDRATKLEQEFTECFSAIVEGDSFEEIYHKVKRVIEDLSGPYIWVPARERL

binding result: binds
B1: GST-ILK (enzyme, rat, UniProt Q99J82 1-452, looked up)
chain: MDDIFTQCREGNAVAVRLWLDNTENDLNQGDDHGFSPLHWACREGRSAVVEMLIMRGARINVMNRGDDTPLHLAASHGHRDIVQKLLQYKADINAVNEHGNVPLHYACFWGQDQVAEDLVANGALVSICNKYGEMPVDKAKAPLRELLRERAEKMGQNLNRIPYKDTFWKGTTRTRPRNGTLNKHSGIDFKQLNFLAKLNENHSGELWKGRWQGNDIVVKVLKVRDWSTRKSRDFNEECPRLRIFSHPNVLPVLGACQAPPAPHPTLITHWMPYGSLYNVLHEGTNFVVDQSQAVKFALDMARGMAFLHTLEPLIPRHALNSRSVMIDEDMTARISMADVKFSFQCPGRMYAPAWVAPEALQKKPEDTNRRSADMWSFAVLLWELVTREVPFADLSNMEIGMKVALEGLRPTIPPGISPHVCKLMKICMNEDPAKRPKFDMIVPILEKMQDK
